According to publication PMC10632514 (2023):
Where no end group is shown, it is not given here. The star is where a group is joined. Palmitoyl = CCCCCCCCCCCCCCCC(=O)*

B1: rmAb 235 IgG1 (antibody, V domains shown)
VH: QVQLQQSGTDLVRPGTSVKVSCKASGYAFTTYFIEWVKQRPGQGLEWIGVINPGSGIPNYNEMFKGKATLTADKSSSTAYLHLSSLTSDDSAVYFCARAPYYYGSSYYYFDVWGAGTTVTVSS
VL: DIVMSQSPSSLAVSVGEKVTMSCKSSQSLLYSSNQKNYLAWYQQKPGQSPKLLIYWASTRDSGVPDRFTGSGSGTDFTLTISSVKAEDLAVYCCQQYYNYPFTFGAGTKLEIK
B2: N-terminally palmitoylated MPER peptide (peptide)
peptide: Palmitoyl-DLLELDKWASLWNWFNITNWLWYIK
B3: rmAb 460 IgG1 (antibody, V domains shown)
VH: EVQLQQSGAELVKPGASVKLSCTASGFNIKDTYMHWVKQRPEQGLEWIGRIDPANGNTKYDPKFQGKATITADTSSNTAYLQLSSLTSEDTAVYFCTRSRGYFGNYYFDYWGQGTTLTVSS
VL: QIVLTQSPAVMSASPGERVTMTCSASSSVSYMYWYQQKPRSSPKPWIYLTSNLASGVPARFSGSGSGTSYSLTISSMEAEDAATYYCQQWSSIPLTFGAGTKLELK

Tests used:
Assay in all cases: SPR; liposome-bound MPER
[1] = biological target: B2
[2] = biological target: 275
[3] = biological target: 274
[4] = biological target: 203
[5] = biological target: 484

Binder | Kd [1] [nM] | Kd [2] [nM] | Kd [3] [nM] | Kd [4] [nM] | Kd [5] [nM]
B1 | 11 | – | – | – | –
B2 | – | 18 | 63 | 29 | 5.5
B3 | 14 | – | – | – | –
